Experiment [1] has as its target T1, dimeric Tobacco 14-3-3 scaffold (Tobacco).
T1 chain: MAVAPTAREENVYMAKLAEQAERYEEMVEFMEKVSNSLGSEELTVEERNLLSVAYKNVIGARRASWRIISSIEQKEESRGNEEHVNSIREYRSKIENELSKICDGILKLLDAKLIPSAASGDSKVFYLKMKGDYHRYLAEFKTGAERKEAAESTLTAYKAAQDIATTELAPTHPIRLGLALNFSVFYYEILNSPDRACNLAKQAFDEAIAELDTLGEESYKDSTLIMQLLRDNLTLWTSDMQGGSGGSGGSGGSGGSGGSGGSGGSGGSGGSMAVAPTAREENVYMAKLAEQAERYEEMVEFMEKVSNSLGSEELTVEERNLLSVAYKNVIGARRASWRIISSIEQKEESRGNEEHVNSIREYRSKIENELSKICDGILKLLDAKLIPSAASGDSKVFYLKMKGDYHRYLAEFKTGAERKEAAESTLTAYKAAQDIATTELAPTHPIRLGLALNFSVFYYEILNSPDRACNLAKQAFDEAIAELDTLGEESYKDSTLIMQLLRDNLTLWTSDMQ
In words: FP.

Experiment [2] addresses T2, dT14-3-3_PKB/CHK1, unphosphorylated (Tobacco | ).
T2 chain: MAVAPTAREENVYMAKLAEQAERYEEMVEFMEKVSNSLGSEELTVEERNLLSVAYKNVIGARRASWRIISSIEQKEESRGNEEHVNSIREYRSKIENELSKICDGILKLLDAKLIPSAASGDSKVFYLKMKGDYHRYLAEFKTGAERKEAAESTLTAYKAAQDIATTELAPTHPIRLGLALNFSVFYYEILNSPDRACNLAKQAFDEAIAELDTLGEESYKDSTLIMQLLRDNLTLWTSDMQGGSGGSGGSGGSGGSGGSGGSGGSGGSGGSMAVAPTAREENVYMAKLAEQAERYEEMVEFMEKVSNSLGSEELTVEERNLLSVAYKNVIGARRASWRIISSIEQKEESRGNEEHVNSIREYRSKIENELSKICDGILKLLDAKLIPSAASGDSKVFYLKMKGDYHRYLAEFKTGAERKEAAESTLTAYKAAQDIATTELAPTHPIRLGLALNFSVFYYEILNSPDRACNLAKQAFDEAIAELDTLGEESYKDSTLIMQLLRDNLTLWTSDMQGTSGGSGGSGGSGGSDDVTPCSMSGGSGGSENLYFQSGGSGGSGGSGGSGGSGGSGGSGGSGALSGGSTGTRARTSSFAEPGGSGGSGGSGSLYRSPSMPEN
The experiment can be described thus: FP.

The target of experiment [3] is T3, dT14-3-3_biCHK1, unphosphorylated (Tobacco | ).
T3 chain: T2 chain with R586L, A587Y, T589S, S590P, F592M, A593P, P595N
The experiment can be described thus: FP.

In experiment [4] the target is T4, dT14-3-3_biPKB, unphosphorylated (Tobacco | ).
T4 chain: T2 chain with L607R, Y608A, S610T, P611S, M613F, P614A, N616P
In words: FP.

In experiment [5] the target is T5, dT14-3-3_PKA/PKB, unphosphorylated (Tobacco | ).
T5 chain: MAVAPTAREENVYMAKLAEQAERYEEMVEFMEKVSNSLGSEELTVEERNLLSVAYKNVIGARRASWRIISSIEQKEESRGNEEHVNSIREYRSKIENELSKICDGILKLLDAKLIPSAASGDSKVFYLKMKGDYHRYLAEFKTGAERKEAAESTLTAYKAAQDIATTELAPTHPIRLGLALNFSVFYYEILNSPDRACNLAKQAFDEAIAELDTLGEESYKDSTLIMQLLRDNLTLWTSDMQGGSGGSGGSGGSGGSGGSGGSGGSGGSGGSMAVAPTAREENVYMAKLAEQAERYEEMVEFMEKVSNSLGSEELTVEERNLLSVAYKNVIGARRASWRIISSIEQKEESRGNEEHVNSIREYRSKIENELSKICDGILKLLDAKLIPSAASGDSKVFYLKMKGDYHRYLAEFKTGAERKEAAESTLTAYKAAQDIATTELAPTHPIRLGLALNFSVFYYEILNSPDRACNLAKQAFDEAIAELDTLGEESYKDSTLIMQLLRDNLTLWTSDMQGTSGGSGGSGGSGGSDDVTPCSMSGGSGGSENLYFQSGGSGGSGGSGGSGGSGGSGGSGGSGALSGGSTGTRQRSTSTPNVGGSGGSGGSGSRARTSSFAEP
The experiment can be described thus: FP.

Experiment [6] addresses T6, dT14-3-3_biPKA, unphosphorylated (Tobacco | ).
T6 chain: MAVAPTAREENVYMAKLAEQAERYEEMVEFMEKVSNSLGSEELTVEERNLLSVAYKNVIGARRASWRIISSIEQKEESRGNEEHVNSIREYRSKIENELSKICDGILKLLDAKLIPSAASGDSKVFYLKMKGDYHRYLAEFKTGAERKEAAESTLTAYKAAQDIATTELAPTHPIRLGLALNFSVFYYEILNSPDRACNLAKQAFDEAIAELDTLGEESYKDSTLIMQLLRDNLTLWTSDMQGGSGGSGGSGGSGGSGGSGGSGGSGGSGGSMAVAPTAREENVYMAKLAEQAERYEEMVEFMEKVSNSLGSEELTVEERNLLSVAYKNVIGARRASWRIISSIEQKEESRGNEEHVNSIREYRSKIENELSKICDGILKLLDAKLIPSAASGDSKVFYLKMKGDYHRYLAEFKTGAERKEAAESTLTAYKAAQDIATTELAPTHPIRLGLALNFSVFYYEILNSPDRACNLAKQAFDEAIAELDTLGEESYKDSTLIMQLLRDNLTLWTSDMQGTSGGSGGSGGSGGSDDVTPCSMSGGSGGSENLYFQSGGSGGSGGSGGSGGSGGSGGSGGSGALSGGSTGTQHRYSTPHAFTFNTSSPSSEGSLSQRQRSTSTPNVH
The experiment can be described thus: FP.

Experiment [7] concerns the target T7, dT14-3-3_PKA/CHK1, unphosphorylated (Tobacco | ).
T7 chain: T2 chain with A587Q, T589S, S590T, F592T, A593P, E594N, P595V
In words: FP.

Experiment [8] addresses T8, mExoS peptide (C-terminal region of exoenzyme S).
T8 chain: QGLLDALDLAS
The experiment can be described thus: fluorescence polarisation.

Positions count from the first letter of the chain named.

QGLLDALDLAS [mExoS peptide (C-terminal region of exoenzyme S)]: the Kd (as a rule, the equilibrium constant for the complex coming apart) in experiment [1] turned out to be 9.69 µM; in experiment [2], 6.62 µM; in experiment [3], 7.57 µM; in experiment [4], 6.91 µM; in experiment [5] it was 6.43 µM; in experiment [6], 5.77 µM. The same molecule yielded a Kd in experiment [7] of 6.64 µM.

B1: dT14-3-3_biPKB, phosphorylated by PKB (protein)
chain: T2 chain with L607R, Y608A, S610T, P611S, M613F, P614A, N616P
modifications: not checked
With B1, the fold decrease in binding affinity relative to the unphosphorylated state in experiment [8] stood at 10 fold.

B2: dT14-3-3_biPKA, phosphorylated by PKA (protein)
chain: T6 chain
modifications: not checked
In the case of B2, the fold decrease in binding affinity relative to the unphosphorylated state in experiment [8] was found to be 35 fold.

These data come from article PMC9295147 (2022).
